{
  "source": "patent US20120220015A1",
  "about": "(BIOLEX THERAPEUTICS, published 2012)",
  "test_in_all_cases": "cell-based or functional assay",
  "key": {"[1]": {"molecular_target": "Lemna-derived plasmin from transgenic line BAP12-B2-150 (aglycosylated plasmin derived from mature human … (human, UniProt P00747 97-580; P00747 581-810)", "sequence (P00747 97-580 N308D, form in doubt, chain 1 of 2)": "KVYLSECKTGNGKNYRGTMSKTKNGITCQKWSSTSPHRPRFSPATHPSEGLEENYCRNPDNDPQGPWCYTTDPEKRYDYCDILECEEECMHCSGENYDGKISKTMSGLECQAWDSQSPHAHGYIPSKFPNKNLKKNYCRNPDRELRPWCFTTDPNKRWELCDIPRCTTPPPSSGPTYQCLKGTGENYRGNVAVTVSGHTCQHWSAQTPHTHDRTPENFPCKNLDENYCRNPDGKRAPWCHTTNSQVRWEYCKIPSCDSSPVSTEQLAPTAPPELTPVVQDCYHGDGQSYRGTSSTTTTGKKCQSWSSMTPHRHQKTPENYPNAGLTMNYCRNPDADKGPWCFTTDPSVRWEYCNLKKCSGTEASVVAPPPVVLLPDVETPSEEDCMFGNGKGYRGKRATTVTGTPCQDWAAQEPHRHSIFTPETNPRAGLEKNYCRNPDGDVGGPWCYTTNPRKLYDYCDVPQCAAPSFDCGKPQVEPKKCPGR", "sequence (P00747 581-810 I701V, form in doubt, chain 2 of 2)": "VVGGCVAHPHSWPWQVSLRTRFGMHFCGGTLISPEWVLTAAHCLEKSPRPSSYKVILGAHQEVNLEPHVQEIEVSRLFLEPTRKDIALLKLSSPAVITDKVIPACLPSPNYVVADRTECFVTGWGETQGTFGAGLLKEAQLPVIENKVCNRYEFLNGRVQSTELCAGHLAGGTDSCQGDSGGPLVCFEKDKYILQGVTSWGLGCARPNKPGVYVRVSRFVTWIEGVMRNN"}, "[2]": {"molecular_target": "Lemna-derived plasmin from transgenic line BAP01-B2-230 (derived from mature human plasminogen with the … (human, UniProt P00747 97-580)); P00747 581-810, Asn-289 of mature plasminogen (Asn-212 of plasmin) partly N-glycosylated)", "sequence (P00747 97-580, form in doubt, chain 1 of 2)": "as the sequence (P00747 97-580 N308D, form in doubt, chain 1 of 2) above, with D212N counted along it", "sequence (P00747 581-810 I701V, form in doubt, chain 2 of 2)": "as the sequence (P00747 581-810 I701V, form in doubt, chain 2 of 2) above"}, "[3]": {"molecular_target": "human reference plasmin (commercial, human-derived plasmin) (human)", "sequence (P00747 20-580, chain 1 of 2)": "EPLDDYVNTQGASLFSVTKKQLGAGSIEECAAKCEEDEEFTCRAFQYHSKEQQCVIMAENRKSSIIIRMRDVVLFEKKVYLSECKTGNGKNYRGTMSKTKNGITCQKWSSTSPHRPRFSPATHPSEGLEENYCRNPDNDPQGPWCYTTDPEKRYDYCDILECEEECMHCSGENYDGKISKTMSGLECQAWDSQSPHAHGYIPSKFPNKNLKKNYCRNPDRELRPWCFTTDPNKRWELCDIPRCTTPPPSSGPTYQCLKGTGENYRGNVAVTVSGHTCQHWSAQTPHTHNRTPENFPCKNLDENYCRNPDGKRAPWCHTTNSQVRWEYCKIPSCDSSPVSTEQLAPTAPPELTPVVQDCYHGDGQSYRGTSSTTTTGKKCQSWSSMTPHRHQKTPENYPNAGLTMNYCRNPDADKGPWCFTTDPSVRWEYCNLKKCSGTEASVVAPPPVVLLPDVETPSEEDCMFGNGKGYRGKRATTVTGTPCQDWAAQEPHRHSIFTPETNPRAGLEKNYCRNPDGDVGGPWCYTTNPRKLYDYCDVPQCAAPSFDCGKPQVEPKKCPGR", "sequence (P00747 581-810, chain 2 of 2)": "as the sequence (P00747 581-810 I701V, form in doubt, chain 2 of 2) above, with V121I counted along it"}},
  "data": [
    {"binder": "α2-antiplasmin (other, UniProt P08697 40-491, looked up) NQEQVSPLTLLKLGNQEPGGQTALKSPPGVCSRDPTPEQTHRLARAMMAFTADLFSLVAQTSTCPNLILSPLSVALALSHLALGAQNHTLQRLQQVLHAGSGPCLPHLLSRLCQDLGPGAFRLAARMYLQKGFPIKEDFLEQSEQLFGAKPVSLTGKQEDDLANINQWVKEATEGKIQEFLSGLPEDTVLLLLNAIHFQGFWRNKFDPSLTQRDSFHLDEQFTVPVEMMQARTYPLRWFLLEQPEIQVAHFPFKNNMSFVVLVPTHFEWNVSQVLANLSWDTLHPPLVWERPTKVRLPKLYLKHQMDLVATLSQLGLQELFQAPDLRGISEQSLVVSGVQHQSTLELSEVGVEAAAATSIAMSRMSLSSFSVNRPFLFFIFEDTTGLPLFVGSVRNPNPSAPRELKEQQDSPGNKDFLQSLKGFPRGDKLFGPDLKLVPPMEEDYPQFGSPK", "values": [
      {"measurement": "percent of plasmin inhibited, no pre-incubation with α2-AP, molar ratio of 1:1 (S-2403 chromogenic assay)", "setting": "[1]", "value": 60, "unit": "%"},
      {"measurement": "percent of plasmin inhibited, no pre-incubation with α2-AP, molar ratio of 1:1 (S-2403 chromogenic assay)", "setting": "[2]", "value": 60, "unit": "%"},
      {"measurement": "percent of plasmin inhibited, no pre-incubation with α2-AP, molar ratio of 1:1 (S-2403 chromogenic assay)", "setting": "[3]", "value": "~90", "unit": "%"}
    ]}
  ]
}
